This note sets out measurements from PMC12851022 (2025).

Test [1] addresses T1, VHL (Homo sapiens, UniProt P40337). Nature of the test: Alpha assay.
The target of test [2] is T1, VHL. The experiment in a line: FRET.

T1 sequence (P40337 whole entry): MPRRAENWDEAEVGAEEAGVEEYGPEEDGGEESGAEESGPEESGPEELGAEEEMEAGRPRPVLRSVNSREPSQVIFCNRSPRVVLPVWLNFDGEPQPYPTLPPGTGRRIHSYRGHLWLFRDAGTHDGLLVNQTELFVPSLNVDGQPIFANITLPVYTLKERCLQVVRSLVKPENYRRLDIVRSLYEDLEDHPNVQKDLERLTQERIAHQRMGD

B1: USP39 (protein)
chain: MSGRSKRESRGSTRGKRESESRGSSGRVKRERDREREPEAASSRGSPVRVKREFEPASAREAPASVVPFVRVKREREVDEDSEPEREVRAKNGRVDSEDRRSRHCPYLDTINRSVLDFDFEKLCSISLSHINAYACLVCGKYFQGRGLKSHAYIHSVQFSHHVFLNLHTLKFYCLPDNYEIIDSSLEDITYVLKPTFTKQQIANLDKQAKLSRAYDGTTYLPGIVGLNNIKANDYANAVLQALSNVPPLRNYFLEEDNYKNIKRPPGDIMFLLVQRFGELMRKLWNPRNFKAHVSPHEMLQAVVLCSKKTFQITKQGDGVDFLSWFLNALHSALGGTKKKKKTIVTDVFQGSMRIFTKKLPHPDLPAEEKEQLLHNDEYQETMVESTFMYLTLDLPTAPLYKDEKEQLIIPQVPLFNILAKFNGITEKEYKTYKENFLKRFQLTKLPPYLIFCIKRFTKNNFFVEKNPTIVNFPITNVDLREYLSEEVQAVHKNTTYDLIANIVHDGKPSEGSYRIHVLHHGTGKWYELQDLQVTDILPQMITLSEAYIQIWKRRDNDETNQQGA
modifications: USP39_PROTAC_V1
As to B1, the figures for the Kd in the test with VHL [1] and in the test with VHL [2] were 232 nM and 12 nM, respectively.
